{"source": "patent US20250060359A1", "about": "“FUSION PROTEINS AND METHODS FOR MONITORING FIBRONECTIN MATRIX ASSEMBLY” (The Trustees of Princeton University, priority 2023, published 2025)", "molecules": {"B1": {"name": "M13 phage clone 6 (6, 35) displaying … (peptide, not shown: large carriers)", "chain": "SITEFNLLPGLW", "modifications": "not fully specified"}, "B2": {"name": "M13 phage clone 33 displaying … (peptide, not shown: large carriers)", "chain": "IAYPTDMSLSYK", "modifications": "not fully specified"}, "B3": {"name": "M13 phage clone 2 (2, 16, 31, 48) displaying GSYDWTKLPGLE (S2) (peptide)", "chain": "GSYDWTKLPGLE", "modifications": "not fully specified (C-terminus)", "notes": "Whole phage particle stood in the assay; also called clone S2; clone s2; not shown: pIII protein of M13 phage; the peptide is its N-terminal fusion"}, "B4": {"name": "M13 phage clone 12 (12, 29) displaying DYSYFDLWYSDT (peptide)", "chain": "DYSYFDLWYSDT", "modifications": "not fully specified (C-terminus)", "notes": "Whole phage particle stood in the assay; not shown: pIII protein of M13 phage; the peptide is its N-terminal fusion"}, "B5": {"name": "M13 phage clone 20 (20, 21, 46) displaying … (S20) (peptide, not shown: large carriers)", "chain": "SDITPWWLLAQD", "modifications": "not fully specified"}, "B6": {"name": "M13 phage clone 4 (4, 44) displaying … (peptide, not shown: large carriers)", "chain": "HNQTMWWTFPST", "modifications": "not fully specified"}, "B7": {"name": "M13 phage clone 11 displaying … (peptide, not shown: large carriers)", "chain": "DHVSLSGRSAAM", "modifications": "not fully specified"}, "B8": {"name": "M13 phage clone 39 displaying YSTTMWQYLPGA (peptide)", "chain": "YSTTMWQYLPGA", "modifications": "not fully specified (C-terminus)", "notes": "as for B4"}, "B9": {"name": "M13 phage clone 1 displaying … (peptide, not shown: large carriers)", "chain": "VSGYNVMPLNGD", "modifications": "not fully specified"}, "B10": {"name": "M13 phage clone 7 (7, 22, 38) displaying AHB… (peptide, not shown: large carriers)", "chain": "AHXRLSGSAPMF-{pIII (M13 phage)}", "modifications": "not fully specified"}, "B11": {"name": "M13 phage clone 23 displaying … (peptide, not shown: large carriers)", "chain": "YVTNWGSLSGSY", "modifications": "not fully specified"}, "B12": {"name": "M13 phage clone 3 (3, 5, 27, 28) displaying … (S3) (peptide, not shown: large carriers)", "chain": "NHVALWGTGTAS", "modifications": "not fully specified"}, "B13": {"name": "M13 phage clone 19 (19, 24, 32, 41, 45) displaying … (peptide, not shown: large carriers)", "chain": "DHIPLRGQRVWQ", "modifications": "not fully specified"}, "B14": {"name": "M13 phage clone 37 displaying … (peptide, not shown: large carriers)", "chain": "WHVALTGNNLER", "modifications": "not fully specified"}, "B15": {"name": "M13 phage clone 9 (9, 42) displaying … (peptide, not shown: large carriers)", "chain": "HWSGTHALSGRA", "modifications": "not fully specified"}}, "key": {"[1]": {"biological_target": "T1, FN fibrils (Mus musculus, UniProt P11276)", "T1 construct": "endogenous in cells; host or cells: NIH 3T3 fibroblasts", "T1 sequence (P11276 33-2477)": "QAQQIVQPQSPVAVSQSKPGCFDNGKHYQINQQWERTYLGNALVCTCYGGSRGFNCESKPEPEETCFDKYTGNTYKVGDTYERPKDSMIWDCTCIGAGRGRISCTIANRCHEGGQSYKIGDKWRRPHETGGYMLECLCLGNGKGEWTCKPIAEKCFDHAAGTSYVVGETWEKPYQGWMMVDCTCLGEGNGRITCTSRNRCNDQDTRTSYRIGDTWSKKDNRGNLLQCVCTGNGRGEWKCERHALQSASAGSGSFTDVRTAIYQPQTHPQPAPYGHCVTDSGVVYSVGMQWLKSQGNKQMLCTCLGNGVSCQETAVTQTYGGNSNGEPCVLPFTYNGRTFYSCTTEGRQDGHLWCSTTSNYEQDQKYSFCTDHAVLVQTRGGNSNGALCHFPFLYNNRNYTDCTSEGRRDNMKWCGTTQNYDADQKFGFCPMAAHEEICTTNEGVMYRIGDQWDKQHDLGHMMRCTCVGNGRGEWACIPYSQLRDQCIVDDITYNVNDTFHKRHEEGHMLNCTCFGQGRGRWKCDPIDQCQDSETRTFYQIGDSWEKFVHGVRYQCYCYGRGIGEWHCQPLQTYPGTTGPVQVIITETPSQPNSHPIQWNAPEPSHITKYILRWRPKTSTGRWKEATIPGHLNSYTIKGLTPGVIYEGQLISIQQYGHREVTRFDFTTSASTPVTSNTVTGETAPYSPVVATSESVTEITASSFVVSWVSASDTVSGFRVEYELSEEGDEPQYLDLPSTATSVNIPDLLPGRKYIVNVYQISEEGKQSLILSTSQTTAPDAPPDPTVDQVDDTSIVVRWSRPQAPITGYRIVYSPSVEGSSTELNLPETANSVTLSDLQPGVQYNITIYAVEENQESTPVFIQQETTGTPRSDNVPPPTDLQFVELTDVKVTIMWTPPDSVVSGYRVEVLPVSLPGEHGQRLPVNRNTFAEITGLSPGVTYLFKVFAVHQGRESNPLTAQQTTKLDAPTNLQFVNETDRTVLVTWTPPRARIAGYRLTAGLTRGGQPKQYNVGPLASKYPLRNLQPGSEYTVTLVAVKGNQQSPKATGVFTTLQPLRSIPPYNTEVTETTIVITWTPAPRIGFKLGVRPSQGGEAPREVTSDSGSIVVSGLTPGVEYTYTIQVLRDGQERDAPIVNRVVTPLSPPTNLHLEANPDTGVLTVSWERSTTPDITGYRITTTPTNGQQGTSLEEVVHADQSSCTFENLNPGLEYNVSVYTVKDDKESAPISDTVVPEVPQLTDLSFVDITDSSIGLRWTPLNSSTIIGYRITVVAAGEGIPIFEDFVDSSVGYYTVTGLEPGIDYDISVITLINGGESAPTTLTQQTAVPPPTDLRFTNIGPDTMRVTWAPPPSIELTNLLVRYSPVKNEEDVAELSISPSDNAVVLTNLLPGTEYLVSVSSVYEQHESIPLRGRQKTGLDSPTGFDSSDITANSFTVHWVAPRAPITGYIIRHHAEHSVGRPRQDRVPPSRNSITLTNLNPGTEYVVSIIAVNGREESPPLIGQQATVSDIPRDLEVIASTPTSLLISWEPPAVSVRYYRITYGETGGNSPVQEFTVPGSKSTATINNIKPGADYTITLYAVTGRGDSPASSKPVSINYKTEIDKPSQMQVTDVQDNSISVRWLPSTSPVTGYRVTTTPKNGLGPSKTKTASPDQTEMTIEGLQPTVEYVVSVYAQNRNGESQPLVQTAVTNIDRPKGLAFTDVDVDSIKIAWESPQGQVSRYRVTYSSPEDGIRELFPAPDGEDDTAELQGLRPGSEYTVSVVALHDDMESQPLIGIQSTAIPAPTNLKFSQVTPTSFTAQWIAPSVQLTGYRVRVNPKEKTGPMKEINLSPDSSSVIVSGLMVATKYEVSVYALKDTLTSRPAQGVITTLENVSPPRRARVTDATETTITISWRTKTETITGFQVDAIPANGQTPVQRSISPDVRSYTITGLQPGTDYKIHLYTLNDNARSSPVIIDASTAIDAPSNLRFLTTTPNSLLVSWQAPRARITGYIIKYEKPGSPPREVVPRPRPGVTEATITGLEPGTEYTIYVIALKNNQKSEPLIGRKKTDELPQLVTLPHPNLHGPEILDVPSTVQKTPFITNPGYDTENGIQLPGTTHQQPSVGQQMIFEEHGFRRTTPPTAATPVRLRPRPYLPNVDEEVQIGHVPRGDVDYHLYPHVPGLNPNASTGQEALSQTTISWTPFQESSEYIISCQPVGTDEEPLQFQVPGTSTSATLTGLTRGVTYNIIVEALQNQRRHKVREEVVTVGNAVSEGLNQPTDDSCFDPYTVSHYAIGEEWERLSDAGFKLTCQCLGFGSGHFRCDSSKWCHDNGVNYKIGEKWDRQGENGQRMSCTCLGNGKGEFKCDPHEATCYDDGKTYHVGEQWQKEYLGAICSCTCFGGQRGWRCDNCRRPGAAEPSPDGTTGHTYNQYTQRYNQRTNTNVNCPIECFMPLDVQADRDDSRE", "assay": "Phage clones incubated with growing fibroblast cultures actively assembling matrix; overlap of phage and FN signal", "assay_type": "cell-based", "conditions": "for Manders' coefficient with a higher concentration of phage: high concentration phage stocks", "experimental": "(§1) FIGS. 4A-4C are representative photomicrographs of fixed and stained assembled matrices after clone 2 (1×10^12 pfu/mL) was incubated with NIH 3T3 fibroblasts for 2 days, and specifically stained for FN (4A) and phage (4B), as well as a merge of the two images (4C). Insets in 4A and 4B are maximum intensity projections of a single fibril obtained through confocal microscopy from the S2 condition for FN (4A) and phage (4B).\nPhage S2 and S2-based phages, effectively label fibrils as they are being assembled.\n(§2) To further analyze the interaction between the isolated phages and FN fibrils, each phage clone was incubated with growing fibroblast cultures that were actively assembling matrix. Monolayers were then stained for both phage and FN and resulting images were analyzed to assess the amount of overlap between phage and FN signal. […] To quantify the extent of phage overlap with FN fibrils, Manders' coefficients were generated, which define the percent overlap between the two image channels. Manders' coefficients reveled the percent overlap of the phage fluorescence with FN was highest for clone S2 (Manders' coefficient 0.91). A summary of all Manders' coefficients and phage characterizations can be found in Table 2.\nClone 2 staining was extremely robust and images of matrix assembled in the presence of a higher concentration of phage appeared to have more coverage of fibrils by phage. […] For clone 12, it appears that adding more phage led to higher background staining. […] This is further supported by confocal images depicting a single fibril from a clone 2 incubation in which there is significant overlap between phage and FN at the level of a single fibril."}, "[2]": {"biological_target": "T1, FN fibrils", "assay": "Fusion proteins tested in fibroblast culture for FN fibril binding", "assay_type": "cell-based", "experimental": "(§3) Following purification using glutathione affinity chromatography, the fusion proteins was tested in fibroblast culture to determine if they maintained the properties seen in the phage."}, "[3]": {"test_system": "FN matrix accumulation", "assay": "Fusion proteins tested in fibroblast culture for impact on matrix accumulation", "assay_type": "cell-based", "experimental": "as §3"}, "[4]": {"biological_target": "T1, FN fibrils", "assay": "Phage binding to FN fibrils of fixed confluent NIH 3T3 fibroblasts (co-staining for M13 phage and FN)", "assay_type": "cell-based", "experimental": "Confluent NIH 3T3 fibroblasts, which have been well characterized to assemble a dense, fibrillar FN matrix, were used to test phage binding to FN fibrils. Cells were fixed, blocked, and incubated with individual phage clones, then co-stained with antibodies to M13 phage and FN and imaged. Most phage-monolayers looked like the negative control and contained infrequent phage signals that were not aligned with the FN matrix. Several of the clones generated a pattern of phage staining that had some co-localization with FN fibrils but also appeared to contain some phage aggregates."}, "[5]": {"test_system": "FN matrix assembly", "assay": "FN matrix accumulation in the presence of phage clones (immunofluorescence, immunoblots of DOC-insoluble FN)", "assay_type": "cell-based", "from_the_text": "Beyond the ability of the isolated phage clones to bind FN matrix, their potential capacity to modulate matrix accumulation was considered. Given that the clones were panned against a FN fragment containing the assembly domain, it was questioned if they might modulate FN matrix assembly."}, "[6]": {"test_system": "FN matrix", "assay": "Immunoblot comparing effects of S3 and S20 against a control on formation of FN matrix (FIG. 2)", "assay_type": "cell-based", "experimental": "FIG. 2 is an immunoblot comparing the effects of S3 and S20 against a control on the formation of FN matrix.\nReferring to FIG. 2, when incubated with cells during matrix assembly, S20 can enhance matrix formation by 60%."}, "[7]": {"substrate": "FN matrix (fibronectin fibrils) assembled by NIH 3T3 fibroblasts (UniProt P11276)", "sequence (P11276 33-2477 limits assumed)": "as the sequence (P11276 33-2477) above", "assay": "phage incubated with fibroblasts assembling matrix; overlap of phage fluorescence with FN stain"}, "[8]": {"biological_target": "T2, FN matrix (fibronectin fibrils) assembled by NIH 3T3 fibroblasts (UniProt P11276 33-2477, limits assumed)", "T2 construct": "whole, on cells; Fibrillar, cell-assembled fibronectin matrix; also called FN fibrils", "T2 sequence (P11276 33-2477 limits assumed)": "as the sequence (P11276 33-2477) above", "assay": "phage incubated with fibroblasts assembling matrix; overlap of phage fluorescence with FN stain", "experimental": "as §1, with “(1×10¹²” for “(1×10^12”\nas §2"}, "[9]": {"substrate": "FN matrix (fibronectin fibrils) assembled by NIH 3T3 fibroblasts (UniProt P11276)", "assay": "cell-based or functional assay"}}, "note": "Where no end group is shown, it is not given here."}
{"molecule": "DYSYFDLWYSDT [Clone 12, 29]", "values": [{"measurement": "Manders' coefficient with a higher concentration of phage", "setting": "[1]", "result": "the Manders' coefficient did not indicate higher coverage with inclusion of more phage"}]}
{"molecule": "GST-S3-GFP: fusion protein of GST, S3 peptide and GFP (NHVALWGTGTAS; not fully specified (N-terminus, C-terminus); also: fusion protein, GST dimerising)", "values": [{"measurement": "FN fibril binding", "setting": "[2]", "result": "no detectable FN fibril binding"}, {"measurement": "impact on matrix accumulation", "setting": "[3]", "result": "neither the S3 or S20 fusion proteins showed any matrix binding capacity or impact on matrix accumulation"}]}
{"molecule": "GST-S20-GFP: fusion protein of GST, S20 peptide and GFP (SDITPWWLLAQD; not fully specified (N-terminus, C-terminus); also: fusion protein, GST dimerising)", "values": [{"measurement": "FN fibril binding", "setting": "[2]", "result": "no detectable FN fibril binding"}, {"measurement": "impact on matrix accumulation", "setting": "[3]", "result": "neither the S3 or S20 fusion proteins showed any matrix binding capacity or impact on matrix accumulation"}]}
{"molecule": "GSYDWTKLPGLE [Clone 2, 16, 31, 48]", "values": [{"measurement": "pattern of phage staining, co-localization with FN matrix", "setting": "[4]", "result": "created a fibrillar pattern that colocalized with the FN matrix better than the other phages"}, {"measurement": "Manders' coefficient with a higher concentration of phage", "setting": "[1]", "result": "maintenance of the high Manders' coefficient"}, {"measurement": "Manders' Coefficient", "setting": "[1]; overlap of the phage fluorescence with FN, growing fibroblast cultures", "result": 0.91}, {"measurement": "labeling of FN fibrils with incorporated phage", "setting": "[1]; phage incubated with fibroblasts as they assembled fibrils", "result": "complete labeling of FN fibrils with incorporated phage"}, {"measurement": "FN matrix accumulation by immunofluorescence", "setting": "[5]", "result": "did not appear to impact FN matrix assembly"}]}
{"molecule": "NHVALWGTGTAS [Clone 3, 5, 27, 28]", "values": [{"measurement": "FN matrix accumulation by immunofluorescence", "setting": "[5]", "result": "without repressing FN matrix immunofluorescence signal"}]}
{"molecule": "NHVALWGTGTAS [Clone S3]", "values": [{"measurement": "effect on matrix formation", "setting": "[6]", "result": "inhibits matrix formation"}]}
{"molecule": "S2-GFP: GST-S2-GFP after cleavage of the GST tag (GSYDWTKLPGLE; not fully specified (C-terminus)) [Clone S2-GFP]", "values": [{"measurement": "FN fibril binding", "setting": "[2]", "result": "completely ablated FN fibril binding"}]}
{"molecule": "SDITPWWLLAQD [Clone 20, 21, 46]", "values": [{"measurement": "FN matrix accumulation by immunofluorescence", "setting": "[5]", "result": "increased FN matrix assembly by two-fold"}]}
{"molecule": "SDITPWWLLAQD [Clone S20]", "values": [{"measurement": "effect on matrix formation", "setting": "[6]", "result": "enhances matrix formation"}, {"measurement": "enhancement of matrix formation", "setting": "[6]; incubated with cells during matrix assembly", "result": 60, "unit": "%"}]}
{"molecule": "B1", "values": [{"measurement": "Manders' Coefficient", "setting": "[7]", "result": 0.606}]}
{"molecule": "B2", "values": [{"measurement": "Manders' Coefficient", "setting": "[7]", "result": 0.56}]}
{"molecule": "B3", "values": [{"measurement": "Manders' Coefficient", "setting": "[8]", "result": 0.913}]}
{"molecule": "B4", "values": [{"measurement": "Manders' Coefficient", "setting": "[8]", "result": 0.746}]}
{"molecule": "B5", "values": [{"measurement": "matrix formation (FIG. 2 immunoblot)", "setting": "[9]", "result": 60, "unit": "%"}, {"measurement": "Manders' Coefficient", "setting": "[7]", "result": 0.552}]}
{"molecule": "B6", "values": [{"measurement": "Manders' Coefficient", "setting": "[7]", "result": 0.47}]}
{"molecule": "B7", "values": [{"measurement": "Manders' Coefficient", "setting": "[7]", "result": 0.173}]}
{"molecule": "B8", "values": [{"measurement": "Manders' Coefficient", "setting": "[8]", "result": 0.677}]}
{"molecule": "B9", "values": [{"measurement": "Manders' Coefficient", "setting": "[7]", "result": 0.253}]}
{"molecule": "B10", "values": [{"measurement": "Manders' Coefficient", "setting": "[7]", "result": 0.39}]}
{"molecule": "B11", "values": [{"measurement": "Manders' Coefficient", "setting": "[7]", "result": 0.675}]}
{"molecule": "B12", "values": [{"measurement": "Manders' Coefficient", "setting": "[7]", "result": 0.527}]}
{"molecule": "B13", "values": [{"measurement": "Manders' Coefficient", "setting": "[7]", "result": 0.397}]}
{"molecule": "B14", "values": [{"measurement": "Manders' Coefficient", "setting": "[7]", "result": 0.698}]}
{"molecule": "B15", "values": [{"measurement": "Manders' Coefficient", "setting": "[7]", "result": 0.588}]}
